Test results taken from patent US20040106173A1, “Bot1: target for antifungal agents” (The University of Miami, priority 2001, published 2004).

Assays:
[1] = system: microtubule cytoskeleton of fission yeast cells expressing Myc-Bot1; assay: Microtubule depolymerization and Bot1p localization by immunofluorescence in cells expressing Myc-Bot1; assay type: cell-based, Schizosaccharomyces pombe; conditions: cells expressing Myc-Bot1 exposed for 45 min
Description: Cells in liquid cultures were grown exponentially for at least eight generations, at densities below 10^7 cells/ml, before the start of the experiment. Immunofluorescent staining was performed as described (46). Cells were fixed in methanol and stained with the following primary antibodies: a rabbit polyclonal antibody anti-Tea1p (40, a kind gift of Dr. P. Nurse, ICRF London), a rabbit polyclonal antibody anti-Orb6p, a monoclonal anti-hemagglutinin (HA) antibody (Covance), and a chicken polyclonal anti-Myc antibody (Molecular Probes). For actin and microtubule staining, a monoclonal anti-actin antibody (Amersham Pharmacia Biotech) and a monoclonal anti-tubulin antibody (TAT1; a kind gift of Dr. K. Gull), respectively, were used A CY3-conjugated anti-mouse, a CY3-conjugated anti-rabbit, or an FITC-conjugated anti-mouse were used as secondary antibodies (Sigma). Cells were immobilized on coverslips using PBS-containing antifade (Molecular Probes) as mounting medium and photographed using a Zeiss Axiophot microscope or a Leica DMRA microscope, equipped with Metamorph 1.7.4 software (Universal Images).
Because our previous results indicated a role for Tea1p in the control of Bot1p function, the effect of microtubule depolymerization on Bot1p localization was assessed. […]

[2] = target: T1, GAL4 binding domain fused to Cdc23p (pAS1-cdc23) (fission yeast, UniProt P04386 1-147; O42709 1-593); assay: yeast two-hybrid (HIS3 and LACZ reporters)
T1 construct: Two-hybrid control bait
Excerpt: (§1) The tea1 gene was fused to the DNA binding domain of GAL4 in a plasmid (pAS1) carrying the trp1 marker. The orb6 gene was fused to the DNA binding domain of GAL4 (pAS1-orb6) and to the GAL4 activator domain (pACT2-orb6). The cDNA library was cloned to the transcription activator domain of GAL4 in a plasmid (pACT) carrying the leu2 marker. Plasmids pAS1, pACT2, pSE1111 (pACT-SNF4), pSE1112 (pAS1-SNF1), pAS1-p53, pAS1-lamin and the S. pombe library prepared in phage λ vectors and plasmids pAS1-SNF1 and pAS1-lamin, both harbored in Y187 strain, were kindly provided by Dr. S. Elledge. The test for cell growth on medium lacking histidine, the beta-galactosidase activation assay and the mating test to detect interaction specificity were performed as described (14). After screening 2×10⁶ transformants, we found five proteins that interact with Orb6p and four that interact with Tea1p in this system, and that were identified multiple times in the screen. Clones containing bot1+ were isolated 22 times in the Orb6p screen and eight times in the Tea1p screen. All clones contained the full-length bot1 sequence, although they usually lacked the initial ATG codon. For beta-galactosidase activation, three independent transformants were assayed for each condition.
(§2) To identify novel components of the Orb6p pathway, a two-hybrid screen was performed to identify cDNAs encoding proteins that interact with Orb6p. One of these, isolated 22 times in this screen, was a novel protein that we named Bot1p. […] The specificity of the positive interaction between Orb6p and Bot1p in the two-hybrid system was controlled by cotransformation of pAS1-orb6 and pACT-bot1 independently with a number of control plasmids. Co-expression of SNF1p or SNF4p was used as positive controls. Orb6p was unable to support the activation of the LACZ-GAL4 and HIS3-GAL4 promoters when co-expressed with GAL4 activation domain fused to SNF4p, or with the GAL4 activation domain (GAD) alone. Bot1p was unable to support the activation of the LACZ-GAL4 and HIS3-GAL4 promoters when co-expressed with the GAL4 binding domain fused to p53, Cdc23p, GAL4 DNA binding domain (GBD) alone, or fused to SNF1p or Cdt1p.

[3] = target: GAL4 binding domain fused to SNF1p (pSE1112, pAS1-SNF1) (UniProt P04386 1-147; P06782 1-633); assay: yeast two-hybrid (HIS3 and LACZ reporters)
Excerpt: as §1, §2

[4] = target: T2, GAL4 binding domain fused to Cdt1p (pAS1-cdt1) (fission yeast, UniProt P04386 1-147; P40382 1-422, limits assumed); assay: two-hybrid library screens with other baits; dot blotting of the isolated pACT plasmids
T2 construct: Two-hybrid control bait

[5] = target: T3, GST-tagged Tea1p (pESP-GSTtea1+) (Schizosaccharomyces pombe, UniProt P87061 1-1147); assay: glutathione beads carrying GST-Tea1p incubated with a fission yeast extract containing HA-Cdc23p
T3 construct: also called GST-Tea1p
T3 sequence (looked up): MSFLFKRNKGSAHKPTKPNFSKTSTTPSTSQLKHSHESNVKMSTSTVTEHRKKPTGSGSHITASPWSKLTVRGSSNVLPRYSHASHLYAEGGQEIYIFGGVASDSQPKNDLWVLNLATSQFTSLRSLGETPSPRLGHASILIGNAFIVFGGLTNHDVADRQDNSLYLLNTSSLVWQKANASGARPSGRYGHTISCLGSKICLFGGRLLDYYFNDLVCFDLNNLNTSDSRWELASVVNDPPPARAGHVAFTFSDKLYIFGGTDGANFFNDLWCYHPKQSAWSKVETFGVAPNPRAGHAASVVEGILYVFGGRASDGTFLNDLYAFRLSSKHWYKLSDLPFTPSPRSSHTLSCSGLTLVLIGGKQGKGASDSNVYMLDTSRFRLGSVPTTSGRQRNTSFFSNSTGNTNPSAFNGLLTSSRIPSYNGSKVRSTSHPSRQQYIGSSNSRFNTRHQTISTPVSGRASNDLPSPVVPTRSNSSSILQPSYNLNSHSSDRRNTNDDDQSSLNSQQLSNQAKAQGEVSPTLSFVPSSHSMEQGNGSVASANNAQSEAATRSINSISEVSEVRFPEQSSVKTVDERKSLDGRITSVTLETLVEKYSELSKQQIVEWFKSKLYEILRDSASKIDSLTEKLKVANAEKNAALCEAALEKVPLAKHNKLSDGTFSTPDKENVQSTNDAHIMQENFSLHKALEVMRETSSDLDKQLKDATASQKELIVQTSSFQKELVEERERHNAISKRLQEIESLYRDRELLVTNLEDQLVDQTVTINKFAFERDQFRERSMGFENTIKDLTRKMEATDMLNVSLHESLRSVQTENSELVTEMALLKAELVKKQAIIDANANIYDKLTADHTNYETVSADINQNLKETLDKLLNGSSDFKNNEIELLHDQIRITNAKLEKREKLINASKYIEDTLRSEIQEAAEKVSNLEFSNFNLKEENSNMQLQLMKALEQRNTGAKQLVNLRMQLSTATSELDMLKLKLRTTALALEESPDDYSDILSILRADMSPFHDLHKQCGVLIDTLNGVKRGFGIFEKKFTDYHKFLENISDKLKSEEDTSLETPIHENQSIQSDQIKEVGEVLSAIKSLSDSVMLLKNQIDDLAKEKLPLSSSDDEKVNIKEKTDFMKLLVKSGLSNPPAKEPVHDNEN
Description: Cell extracts were prepared as described. GST-Tea1p and GST were purified using glutathione beads (Molecular Probes). Beads were spun, and further incubated for 4 hr with an extract containing HA-Bot1p or a control extract containing HA-Cdc23p.
Glutathione beads were washed three times in HB buffer and then eluted. The eluate was run on a 10% polyacrylamide gel, blotted on nitrocellulose, and probed with a primary anti-HA antibody (Covance) or, separately, with a primary anti-GST antibody (Molecular Probes) and with a horseradish peroxidase-conjugated secondary antibody (ECL, Amersham).
To confirm this interaction between Tea1p and Bot1p in fission yeast extracts, GST-Tea1p and HA-Bot1p were co-expressed in fission yeast cells, and GST-Tea1p was purified using glutathione-coupled resin. The beads were further incubated with an extract containing HA-Bot1p or HA-Cdc23p as a control.

In the case of `COC(=O)Nc1nc2ccccc2[nH]1` [MBC, methyl-benzidazole-carbamate], the “effect on microtubule cytoskeleton” value ([1]; DMSO control) is reported as “virtually complete microtubule depolymerization” and the Bot1p localization ([1]; DMSO control showed normal Bot1p localization at the cell tips) is reported as “more spread out and less restricted to the cell tips”.

B1: Bot1p fused to the GAL4 activation domain (pACT-bot1) (other, not shown: large carriers)
chain: MRNSVEFSQLGLKTAFNLSQNKTYTSAVKKQFFSTGAFLSNGGNIDLNKHTQKNIDSKYVACNSRSVTPPNDVASSVSKNTLRHKQRLMMAQWLMSPEVQKAKSSSSGNVGLGPNTNQPFPLNPFFKPPRPISHSLRMKITDEYLQGASIEVLARKFNTSPQRIEALIKLRRINDEFEEKKKPILHSYNEVMEKMLNACTKPEMMQFNDGNDIPLRSNPVSLWKSLPEGETFTPQEAAKILKWPSIEELNMRQNATHFHKTSDEHKDLNEDEELISSSPSEVGKRVFRLIDLSTGNVYRRDTGGDIYVKRKKSTT
notes: also called bot1+ clones
B1: no binding [2]; no binding [3]; no binding [4].

B2: HA-tagged Cdc23p (pRep41-HA3cdc23) (other, fission yeast, UniProt O42709 1-593, looked up, not shown: small tags and cut ends)
chain: MHDPFIAEENDLDLEEKRLQRQLNEIQEKKRLRSAQKEASSENAEVIQVPRSPPQQVRVLTVSSPSKLKSPKRLILGIDKGKTGKDVSLGKGPRGPLPKPFHERLAEARNQERKRSDKLKTMKKNRKQSFQRKRNILEDGKSEEEKFPMKCDEIDPYSRQAIVIRYISDEVAKENIGGNQVYLIHQLLKLVRAPKFEAPEVDNYVVMGIVASNSGTRETVNGNKYCMLTLTDLKWQLECFLFGKAFERYWKIQSGTVIALLNPEVLKPKNPDIGRFSLKLDSEYDVLLEIGRSKHLGYCSSRRKSGELCKHWLDKRAGDVCEYHVDLAVQRSMSTRTEFASSMATMHEPRARREKRFRGQGFQGYFAGEKYSAIPNAVAGLYDAEDAVQTERERKERYKKQRAQAEREREILVRLSKRCCASSSSSSNSNNLSTGMSMRTLGHQYLNLQGSGVKNLHDKGNPTALSKDSEIDSSTKKPSVLASFNASIMNPKSSLPSFSNSAILGTNDAASGTPVPQDTTSTKVSPAVVFTSSPRIFSPQSLRKIGFDPTHSADASTTHSTATGLSRSGSLKNIKFRYEFTESDDEDDLEIVP
notes: also called HA-Cdc23p; HA-Cdc23
B2: no binding [5].
